B1: CPEB3 Ribozyme (parent)
chain: GGGGGCCACAGCAGAAGCGUUCACGUCGCGGCCCCUGUCAGAUUCUGGUGAAUCUGCGAAUUCUGCUGU

Variants of: B1
Assay: self-cleavage, relative activity (ratio to wild type); higher = more cleavage; co-transcriptional
Variant GGGGUCCACAGCAGAAGCGUUCACGUCGCGGUCCCUGUCAGAUUCUGGUGAAUCUGCGAAUUCUGCUGU [G5U C32U] has a self-cleavage of 0.568.
For GGGGUCCACAGCAGAAGCGUUCACGUCGCGGACCCUGUCAGAUUCUGGUGAAUCUGCGAAUUCUGCUGU [G5U C32A], the self-cleavage was 0.953.
In the case of GGGGUCCACAGCAGAAGCGUUCACGUCGCGGGCCCUGUCAGAUUCUGGUGAAUCUGCGAAUUCUGCUGU [G5U C32G], the self-cleavage is reported as 0.815.
For GGGGUCCACAGCAGAAGCGUUCACGUCGCGGCCCCUGUCAGAUUCUGCUGAAUCUGCGAAUUCUGCUGU [G5U G48C], the self-cleavage was 0.327.
GGGGUCCACAGCUGAAGCGUUCACGUCGCGGCCCCUGUCAGAUUCUGGUGAAUCUGCGAAUUCUGCUGU [G5U A13U] gave a self-cleavage of 0.139.
Work on GGGGUCCACAGCAGAAGCGUUCACGUCGCGGCCGCUGUCAGAUUCUGGUGAAUCUGCGAAUUCUGCUGU [G5U C34G] yielded a self-cleavage of 0.0508.
GGGGUCCACAGCAGAAGCGUUCACGUCGCGGCCACUGUCAGAUUCUGGUGAAUCUGCGAAUUCUGCUGU [G5U C34A] showed a self-cleavage of 0.0978.
In the case of GGGGUCCACAGCAGAAGCGUUCACGUCGCGGCCCCUGUCAGAUUCUGGUGAUUCUGCGAAUUCUGCUGU [G5U A52U], the self-cleavage is reported as 0.232.
GGGGUCCACAGCAGAAGCGUUCACGUCGCGGCCCCUGUCAGAUUCUGGUGAGUCUGCGAAUUCUGCUGU [G5U A52G] gave a self-cleavage of 0.266.
With GGGGUCCACAGCAGAAGCGUUCACGUCGCGGCCCCUGUCAGAUUCUGGUGAAUCUGCGUAUUCUGCUGU [G5U A59U] the self-cleavage was 0.125.
Work on GGGGUUCACAGCAGAAGCGUUCACGUCGCGGCCCCUGUCAGAUUCUGGUGAAUCUGCGAAUUCUGCUGU [G5U C6U] yielded a self-cleavage of 0.111.
GGGGUCCACAGCAGAAGCGUUCACGUUGCGGCCCCUGUCAGAUUCUGGUGAAUCUGCGAAUUCUGCUGU [G5U C27U] showed a self-cleavage of 0.032.
For GGGGUCCACAGCAGAAGCGUUCACGUGGCGGCCCCUGUCAGAUUCUGGUGAAUCUGCGAAUUCUGCUGU [G5U C27G], the self-cleavage was 0.0619.
Work on GGGGUCCACAGCAGAAGCGUUCACAUCGCGGCCCCUGUCAGAUUCUGGUGAAUCUGCGAAUUCUGCUGU [G5U G25A] yielded a self-cleavage of 0.0881.
GGGGUCCACAGCAGAAGCGUUCACUUCGCGGCCCCUGUCAGAUUCUGGUGAAUCUGCGAAUUCUGCUGU [G5U G25U] gave a self-cleavage of 0.0766.
Variant GGGGUCCACAGCAGAAGCGUUCACCUCGCGGCCCCUGUCAGAUUCUGGUGAAUCUGCGAAUUCUGCUGU [G5U G25C] has a self-cleavage of 0.0917.
Variant GGGGUCCACAGCAGAUGCGUUCACGUCGCGGCCCCUGUCAGAUUCUGGUGAAUCUGCGAAUUCUGCUGU [G5U A16U] has a self-cleavage of 0.127.
For GGGGUCCACAGCAGAGGCGUUCACGUCGCGGCCCCUGUCAGAUUCUGGUGAAUCUGCGAAUUCUGCUGU [G5U A16G], the self-cleavage was 0.14.
GGGGUCCACAGCAGAAGCGUUCACGUCGCGGCCCCUGUCAGAUUCUGGUGAAUUUGCGAAUUCUGCUGU [G5U C54U] gave a self-cleavage of 0.231.
For GGGGUCCACAGCAGAAGCGUUCACGUCGCGGCCCCUGUUAGAUUCUGGUGAAUCUGCGAAUUCUGCUGU [G5U C39U], the self-cleavage was 0.101.
With GGGGUCCACAGCAGAAGCGUUCACGUCUCGGCCCCUGUCAGAUUCUGGUGAAUCUGCGAAUUCUGCUGU [G5U G28U] the self-cleavage was 0.0687.
Variant GGGGUCCACAGCAGAAGCGUUCACGUCACGGCCCCUGUCAGAUUCUGGUGAAUCUGCGAAUUCUGCUGU [G5U G28A] has a self-cleavage of 0.046.
With GGGGUCCACAGCAGAAGCGUUCACGUCCCGGCCCCUGUCAGAUUCUGGUGAAUCUGCGAAUUCUGCUGU [G5U G28C] the self-cleavage was 0.0876.
In the case of GGGGUCCACAGCAGAACCGUUCACGUCGCGGCCCCUGUCAGAUUCUGGUGAAUCUGCGAAUUCUGCUGU [G5U G17C], the self-cleavage is reported as 0.0663.
Variant GGGGUCCACAGCAGAAUCGUUCACGUCGCGGCCCCUGUCAGAUUCUGGUGAAUCUGCGAAUUCUGCUGU [G5U G17U] has a self-cleavage of 0.0412.
Work on GGGGUCCACAGCAGAAACGUUCACGUCGCGGCCCCUGUCAGAUUCUGGUGAAUCUGCGAAUUCUGCUGU [G5U G17A] yielded a self-cleavage of 0.082.
GGGGUCCACAGCAGAAGAGUUCACGUCGCGGCCCCUGUCAGAUUCUGGUGAAUCUGCGAAUUCUGCUGU [G5U C18A] gave a self-cleavage of 0.0315.
Work on GGGGUCCACAGCAGAAGGGUUCACGUCGCGGCCCCUGUCAGAUUCUGGUGAAUCUGCGAAUUCUGCUGU [G5U C18G] yielded a self-cleavage of 0.0898.
In the case of GGGGUCCACAGCAGAAGCCUUCACGUCGCGGCCCCUGUCAGAUUCUGGUGAAUCUGCGAAUUCUGCUGU [G5U G19C], the self-cleavage is reported as 0.0535.
For GGGGUCCACAGCAGAAGCUUUCACGUCGCGGCCCCUGUCAGAUUCUGGUGAAUCUGCGAAUUCUGCUGU [G5U G19U], the self-cleavage was 0.0974.
GGGGUCCACAGCAGAAGCGUUCACGUCGAGGCCCCUGUCAGAUUCUGGUGAAUCUGCGAAUUCUGCUGU [G5U C29A] gave a self-cleavage of 0.0808.
Work on GGGGUCCACAGCAGAAGCGUUCACGUCGGGGCCCCUGUCAGAUUCUGGUGAAUCUGCGAAUUCUGCUGU [G5U C29G] yielded a self-cleavage of 0.0724.
With GGGGUCCACAGCAGAAGCGUUCACGUCGCGGCCCCUGUCAGCUUCUGGUGAAUCUGCGAAUUCUGCUGU [G5U A42C] the self-cleavage was 0.0793.
For GGGGUCCACAGCAGAAGCGUUCACGUCGCGGCCCCUGUCAGUUUCUGGUGAAUCUGCGAAUUCUGCUGU [G5U A42U], the self-cleavage was 0.118.
GGGGUCCACAGCAGAAGCGUUCACGUCGCGGCCCCUGUCAGGUUCUGGUGAAUCUGCGAAUUCUGCUGU [G5U A42G] showed a self-cleavage of 0.343.
GGGGUCCACAGCAGAAGCGUUCGCGUCGCGGCCCCUGUCAGAUUCUGGUGAAUCUGCGAAUUCUGCUGU [G5U A23G] gave a self-cleavage of 0.253.
With GGGGUCCACAGCAGAAGCGUUCCCGUCGCGGCCCCUGUCAGAUUCUGGUGAAUCUGCGAAUUCUGCUGU [G5U A23C] the self-cleavage was 0.211.
With GGGGUCCACAGCAGAAGCGUUCUCGUCGCGGCCCCUGUCAGAUUCUGGUGAAUCUGCGAAUUCUGCUGU [G5U A23U] the self-cleavage was 0.402.
In the case of GGGGUCCACAGCAGAAGCGUUCACGUCGCGGCCCCUGUCAGAUUCUGGUGAAUCUGCGAAUUCUGUUGU [G5U C66U], the self-cleavage is reported as 0.299.
